Measured values taken from PMC3583661 (Molecular Biology of the Cell, 2013).

Target: the molecule itself
Experiment: co-IP

B1: Slk19 (recombinant; Slk19-HA-His and Slk19-Myc-His) (natural protein, budding yeast, UniProt Q08581 1-821, looked up)
chain: MNEVPTTPVRLILGQAQQREQNSENCSQERNPRTFNSEPDSSFNSPGSSQFVIHPHEPLEKEKDEKQDLDRSIDYGRSSALNNKNNANPLENIDINKMFDDKKSDSGTNDDKGGASTSDKHVLALNYSPIRVEMNSSEKRSDKNVDVDENDKEGSHINKKLKLQLESVPDLKQSSTKDIINDKEEIMSSPMAIDMIETNISPNKFIINDGVERNDSFNINTDTLKLENDINEKQQEEDFIKSNSNNVVNIDNAYKEKEDEENDITNSHINRLTPLYETSARESNSNEEGRNDYDDDNQLDIRHDNFQIVAKRNEELTDQIYHLNQMLNSLISKNESLSFQYEKLNKNHQLLIDLTNEKLDKLNTERESDIAKVEKFKKRIKELNTEIKVLNSNQKILQEKFDASITEVNHIKGEHENTVNTLQQNEKILNDKNVELENMKAELKGNNDKLSEYETTLNDLNSRIVQLNDKIESTDIVLKSKENELDNLKLSLKETLSISKDFNDSDLIGQINELISTKNNLQQKMDDLNNLNDDNLKVVQDKLIKNEETLKLKEAEIDSLNSEMDELKKQITSKDDEFKMWQSKYETVEDEAKIRNAEVTELNGDIEDLKESKLHLEETITELENKVHKLENECELEKQKFEKTSLELESLQLKNSNIQAEHIKELENLHENLISLQNELKISSDRITTLTKENEVLMEQNNNNNNSVTLSNDQKDRDDEKIKSLGKQVQDWKEKYEAKEKDTNKRLKLLAEDLYIQYSSKHEQKVKLLKKGYENKYQNKFDQLNLENKTLSEEIEQLNKQLSSEREEKQELLKLLENEKK
binding result: binds
